Where a chain is given by its changes, count along the chain named. Names may count otherwise.
B1: Anti-C1s antibody 2-7 (antibody, human IgG1, kappa, V domains shown)
VH: EVKLEESGGGLVPPGGSMKLSCVASGFTFSNYFMNWVRQSPEKGLEWVAEIRLKFTNYATHYAESVEGRFTISRDDSKSSVYLQMNNLRAEDTGIYYCTRDYGSRNGYFDYWGQGTTLTVSS
VL: DIVMTQAAPSVPVTPGESVSISCRSSKSLLHSNGNTFLYWFLQRPGQSPQLLIYRMSNLASGVPDRFSGSGSGTAFTLRVSRVEAEDVGIYYCMQHLEYPYTFGGGTKLEIKT
notes: the HC/LC entries may hold it too; also called clone 2-7
B2: Anti-C1s antibody 2-8 (antibody, V domains shown)
VH: EVQLQQSGAELVRPGALVKLSCKASGFNIKEYYMHWVKQRPEQGLEWIGWIDPENGDTIYDPKFQGKASITADTSSNTAYLQLSSLTSEDTAVYYCARSRLFFAYWGQGTLVTVSA
VL: DIVMTQSHKFMSTSVGDRVSFTCKASQDVRTAVDWYQQKPGQSPKLLIYSASYRYTGVPDRFTGTGSGTDFTFTISSVQAEDLAVYFCQQQYTTPYTFGGGTKLEIKT
notes: the HC/LC entries may hold it too; also called clone 2-8
B3: Anti-C1s antibody hz2-7(H1L2) (antibody, V domains shown)
VH: EVQLLESGGGLVQPGGSLRLSCAASGFTFSNYFMNWVRQAPGKGLEWVSEIRLKFTNYATHYADSVKGRFTISRDDSKSTLYLQMNSLRAEDTAVYYCTRDYGSRNGYFDYWGQGTLVTVSS
VL: DIVMTQTPLSLPVTPGEPASISCRSSKSLLHSNGNTFLYWFLQKPGQSPQLLIYRMSNLASGVPDRFSGSGSGTDFTLKISRVEAEDVGVYYCMQHLEYPYTFGGGTKLEIKR
notes: Humanized, human IgG1 / kappa; also called hz2-7(1L2)
B4: Anti-C1s antibody hz2-8 (H1L2 G80A) (antibody, V domains shown)
VH: QVQLVQSGAEVKKPGASVKVSCKASGFNIKEYYMHWVRQAPEQGLEWMGWIDPENADTIYAQKFQGRVTITADTSTNTAYMELSSLRSEDTAVYYCARSRLFFAYWGQGTLVTVSS
VL: DIQMTQSPKSLSASVGDRVTITCRASQDVRTALDWYQQKPGQSPKLLIYSASYRYSGVPSRFSGSGSGTDFTLTISSLQPEDFATYYCQQQYTTPYTFGQGTKLEIKR
notes: Humanized variant with G80A in HC CDR2 (already in the entry), human IgG1 / kappa
B5: Anti-C1s antibody hz2-8 (H1L2 G80A/T82A) (antibody, V domains shown)
VH: B4 VH with T58A
VL: B4 VL
notes: Humanized variant with G80A and T82A in HC CDR2 (already in the entry), human IgG1 / kappa

Assays:
[1] = target: T1, C1s in normal cynomolgus monkey serum (CMS, CompTech NCYS) (cynomolgus monkey, UniProt A0A2K5VQX9 16-685); experiment: cell-based or functional assay
T1 sequence: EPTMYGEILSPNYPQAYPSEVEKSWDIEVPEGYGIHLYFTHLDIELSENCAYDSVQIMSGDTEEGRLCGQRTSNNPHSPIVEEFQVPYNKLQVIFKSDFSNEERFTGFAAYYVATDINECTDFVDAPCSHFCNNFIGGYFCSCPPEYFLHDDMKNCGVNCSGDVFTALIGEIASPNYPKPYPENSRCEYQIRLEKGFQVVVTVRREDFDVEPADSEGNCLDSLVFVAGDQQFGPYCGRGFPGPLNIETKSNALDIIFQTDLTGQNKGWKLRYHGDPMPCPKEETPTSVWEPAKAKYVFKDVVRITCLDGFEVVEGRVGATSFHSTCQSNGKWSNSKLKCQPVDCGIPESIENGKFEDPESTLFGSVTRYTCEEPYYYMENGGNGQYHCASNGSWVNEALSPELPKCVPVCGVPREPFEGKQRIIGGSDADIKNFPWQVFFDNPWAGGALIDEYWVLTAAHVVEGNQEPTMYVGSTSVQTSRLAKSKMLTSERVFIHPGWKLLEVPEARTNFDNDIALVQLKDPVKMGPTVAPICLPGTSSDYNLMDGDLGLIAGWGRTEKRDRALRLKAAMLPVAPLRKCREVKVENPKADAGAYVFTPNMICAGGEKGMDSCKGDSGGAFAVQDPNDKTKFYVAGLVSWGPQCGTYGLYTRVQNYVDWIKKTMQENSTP

[2] = target: T2, cynomolgus monkey C1s (produced in house) (cynomolgus monkey, UniProt P09871 16-685 (human entry), limits assumed); experiment: ELISA, plate coated with 200 ng/well CyC1s, OD450nm
T2 construct: also called CyC1s
T2 chain: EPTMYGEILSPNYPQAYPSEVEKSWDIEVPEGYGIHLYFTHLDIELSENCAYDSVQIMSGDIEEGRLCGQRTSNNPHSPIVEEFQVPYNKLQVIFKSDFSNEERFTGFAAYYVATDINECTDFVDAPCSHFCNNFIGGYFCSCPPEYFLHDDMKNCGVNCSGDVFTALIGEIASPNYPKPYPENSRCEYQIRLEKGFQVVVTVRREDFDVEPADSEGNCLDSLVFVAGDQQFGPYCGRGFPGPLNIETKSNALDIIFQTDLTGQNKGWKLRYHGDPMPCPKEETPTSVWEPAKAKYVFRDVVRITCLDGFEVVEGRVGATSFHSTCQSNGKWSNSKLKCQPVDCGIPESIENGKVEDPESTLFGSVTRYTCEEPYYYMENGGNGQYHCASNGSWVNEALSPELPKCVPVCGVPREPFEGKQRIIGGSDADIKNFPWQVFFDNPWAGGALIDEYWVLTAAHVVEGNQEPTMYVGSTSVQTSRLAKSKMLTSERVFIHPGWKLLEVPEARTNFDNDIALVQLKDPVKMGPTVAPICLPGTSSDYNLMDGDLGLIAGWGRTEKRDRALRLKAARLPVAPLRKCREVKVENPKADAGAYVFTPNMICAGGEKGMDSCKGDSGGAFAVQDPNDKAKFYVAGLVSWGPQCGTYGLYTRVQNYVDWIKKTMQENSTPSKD
Method: The next morning, plates were blocked with SuperBlock T20 blocking buffer (Thermo Scientific 37536) for 1 h with gentle shaking. Then, various concentrations of anti-C1s antibodies diluted in SuperBlock T20 blocking buffer were added to the plates and incubated for 1 h with gentle shaking. Mouse IgG (Sigma-Aldrich I5381) and Human IgG1 (BioXCell BP0297) were used as negative controls. The plates were washed before incubating with HRP conjugated secondary antibodies diluted in SuperBlock T20 blocking buffer (goat anti-mouse IgG (H+L) cross-adsorbed secondary antibody HRP (Invitrogen G-21040) or goat anti-human IgG antibody, HRP conjugate (Millipore AP309P)) for 1 h with gentle shaking. At last, the plates were washed and color developed with ELISA liquid substrate (Sigma-Aldrich), followed by stopping the reaction with addition of the same volume of […] 1M H₂SO₄. Bound antibody was measured by absorbance at OD₄₅₀ₙₘ.

[3] = target: T3, C1s in normal human serum (NHS, CompTech NHS) (human, UniProt P09871 16-688); experiment: cell-based or functional assay
T3 sequence (looked up): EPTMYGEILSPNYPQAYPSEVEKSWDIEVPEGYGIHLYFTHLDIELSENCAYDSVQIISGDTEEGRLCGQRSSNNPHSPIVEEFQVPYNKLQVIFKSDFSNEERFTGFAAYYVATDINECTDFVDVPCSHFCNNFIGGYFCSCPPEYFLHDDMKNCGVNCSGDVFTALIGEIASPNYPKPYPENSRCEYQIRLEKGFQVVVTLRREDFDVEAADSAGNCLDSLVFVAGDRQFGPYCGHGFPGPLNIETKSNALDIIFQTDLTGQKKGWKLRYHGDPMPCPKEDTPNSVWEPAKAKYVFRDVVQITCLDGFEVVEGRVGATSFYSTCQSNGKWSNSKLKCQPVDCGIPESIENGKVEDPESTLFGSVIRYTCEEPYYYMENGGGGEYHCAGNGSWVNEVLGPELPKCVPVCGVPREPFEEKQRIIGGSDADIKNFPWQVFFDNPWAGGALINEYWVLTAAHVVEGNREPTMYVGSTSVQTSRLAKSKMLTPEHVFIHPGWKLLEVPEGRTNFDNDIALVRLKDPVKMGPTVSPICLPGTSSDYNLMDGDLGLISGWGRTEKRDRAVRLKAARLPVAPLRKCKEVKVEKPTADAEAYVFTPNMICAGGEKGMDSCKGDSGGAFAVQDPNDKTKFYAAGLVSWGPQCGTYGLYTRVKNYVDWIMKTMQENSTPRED

Binder	IC50, inhibition of IgM-induced C4 deposition from cynomolgus monkey serum [1]	EC50 [2]	IC50, inhibition of IgM-induced C4 deposition from NHS [3]	IC50, inhibition of human complement-mediated lysis of EA [3]	IC50, inhibition of IgM-induced C4 deposition from CMS [1]	IC50, inhibition of cynomolgus monkey complement-mediated lysis of EA [1]
B1	~0.3 µg/mL	0.011 µg/mL				
B2	~0.5 µg/mL	0.012 µg/mL				
B3		0.015 µg/mL	1.1 µg/mL	4.1 µg/mL	0.9 µg/mL	0.8 µg/mL
B4			0.5 µg/mL		0.5 µg/mL	
B5		0.01 µg/mL	0.4 µg/mL		0.4 µg/mL	

Source: patent US20230051715A1 (MABWELL THERAPEUTICS, published 2023)
